Laboratory results taken from the Human Domainome abundance scans (Beltran et al. 2025).
± gives the uncertainty stated by the source.

B1: Histone-lysine N-methyltransferase SETD2, residues 2382 to 2430; numbered along this chain, Q9BYW2 (parent)
chain: SPPKPKTIVLPPNWKTARDPEGKIYYYHVITRQTQWDPPTWESPGDDAS

Variants of: B1
Experiment: abundance fitness (aPCA) (normalised: wild type 0, dead -1); higher = more abundant; growth selection in yeast, the domain comes from the species named
Conditions: Homo sapiens

| Variant | abundance fitness |
| --- | --- |
| SPPKPKTIVLPPNWKTARDPEHKIYYYHVITRQTQWDPPTWESPGDDAS [G22H] | -0.484 ± 0.16 |
| SPPKPKTIVLPPNWKTARDPEIKIYYYHVITRQTQWDPPTWESPGDDAS [G22I] | -0.753 ± 0.29 |
| SPPKPKTIVLPPNWKTARDPEKKIYYYHVITRQTQWDPPTWESPGDDAS [G22K] | -0.482 ± 0.076 |
| SPPKPKTIVLPPNWKTARDPELKIYYYHVITRQTQWDPPTWESPGDDAS [G22L] | -0.593 ± 0.11 |
| SPPKPKTIVLPPNWKTARDPEMKIYYYHVITRQTQWDPPTWESPGDDAS [G22M] | -0.636 ± 0.14 |
| SPPKPKTIVLPPNWKTARDPENKIYYYHVITRQTQWDPPTWESPGDDAS [G22N] | -0.555 ± 0.32 |
| SPPKPKTIVLPPNWKTARDPEQKIYYYHVITRQTQWDPPTWESPGDDAS [G22Q] | -0.841 ± 0.18 |
| SPPKPKTIVLPPNWKTARDPERKIYYYHVITRQTQWDPPTWESPGDDAS [G22R] | -0.607 ± 0.059 |
| SPPKPKTIVLPPNWKTARDPESKIYYYHVITRQTQWDPPTWESPGDDAS [G22S] | -0.297 ± 0.07 |
| SPPKPKTIVLPPNWKTARDPETKIYYYHVITRQTQWDPPTWESPGDDAS [G22T] | -1.02 ± 0.078 |
| SPPKPKTIVLPPNWKTARDPEVKIYYYHVITRQTQWDPPTWESPGDDAS [G22V] | -0.782 ± 0.088 |
| SPPKPKTIVLPPNWKTARDPEWKIYYYHVITRQTQWDPPTWESPGDDAS [G22W] | -0.224 ± 0.093 |
| SPPKPKTIVLPPNWKTARDPEGAIYYYHVITRQTQWDPPTWESPGDDAS [K23A] | -0.288 ± 0.076 |
| SPPKPKTIVLPPNWKTARDPEGCIYYYHVITRQTQWDPPTWESPGDDAS [K23C] | -0.402 ± 0.094 |
| SPPKPKTIVLPPNWKTARDPEGDIYYYHVITRQTQWDPPTWESPGDDAS [K23D] | -0.493 ± 0.047 |
| SPPKPKTIVLPPNWKTARDPEGEIYYYHVITRQTQWDPPTWESPGDDAS [K23E] | -0.433 ± 0.12 |
| SPPKPKTIVLPPNWKTARDPEGFIYYYHVITRQTQWDPPTWESPGDDAS [K23F] | -0.619 ± 0.15 |
| SPPKPKTIVLPPNWKTARDPEGGIYYYHVITRQTQWDPPTWESPGDDAS [K23G] | -0.243 ± 0.035 |
| SPPKPKTIVLPPNWKTARDPEGHIYYYHVITRQTQWDPPTWESPGDDAS [K23H] | -0.686 ± 0.28 |
| SPPKPKTIVLPPNWKTARDPEGIIYYYHVITRQTQWDPPTWESPGDDAS [K23I] | -0.447 ± 0.14 |
| SPPKPKTIVLPPNWKTARDPEGLIYYYHVITRQTQWDPPTWESPGDDAS [K23L] | -0.457 ± 0.035 |
| SPPKPKTIVLPPNWKTARDPEGMIYYYHVITRQTQWDPPTWESPGDDAS [K23M] | -0.514 ± 0.08 |
| SPPKPKTIVLPPNWKTARDPEGNIYYYHVITRQTQWDPPTWESPGDDAS [K23N] | -0.563 ± 0.14 |
| SPPKPKTIVLPPNWKTARDPEGQIYYYHVITRQTQWDPPTWESPGDDAS [K23Q] | -0.28 ± 0.09 |
| SPPKPKTIVLPPNWKTARDPEGRIYYYHVITRQTQWDPPTWESPGDDAS [K23R] | 0.029 ± 0.034 |
| SPPKPKTIVLPPNWKTARDPEGSIYYYHVITRQTQWDPPTWESPGDDAS [K23S] | -0.279 ± 0.073 |
| SPPKPKTIVLPPNWKTARDPEGTIYYYHVITRQTQWDPPTWESPGDDAS [K23T] | -0.147 ± 0.044 |

| Variant | abundance fitness |
| --- | --- |
| SPPKPKTIVLPPNWKTARDPEGVIYYYHVITRQTQWDPPTWESPGDDAS [K23V] | -0.303 ± 0.054 |
| SPPKPKTIVLPPNWKTARDPEGWIYYYHVITRQTQWDPPTWESPGDDAS [K23W] | -0.789 ± 0.047 |
| SPPKPKTIVLPPNWKTARDPEGYIYYYHVITRQTQWDPPTWESPGDDAS [K23Y] | -0.316 ± 0.11 |
| SPPKPKTIVLPPNWKTARDPEGKAYYYHVITRQTQWDPPTWESPGDDAS [I24A] | -0.253 ± 0.23 |
| SPPKPKTIVLPPNWKTARDPEGKGYYYHVITRQTQWDPPTWESPGDDAS [I24G] | -0.578 ± 0.22 |
| SPPKPKTIVLPPNWKTARDPEGKHYYYHVITRQTQWDPPTWESPGDDAS [I24H] | -0.549 ± 0.48 |
| SPPKPKTIVLPPNWKTARDPEGKTYYYHVITRQTQWDPPTWESPGDDAS [I24T] | -0.228 ± 0.41 |
| SPPKPKTIVLPPNWKTARDPEGKVYYYHVITRQTQWDPPTWESPGDDAS [I24V] | -0.406 ± 0.27 |
| SPPKPKTIVLPPNWKTARDPEGKWYYYHVITRQTQWDPPTWESPGDDAS [I24W] | -0.123 ± 0.27 |
| SPPKPKTIVLPPNWKTARDPEGKYYYYHVITRQTQWDPPTWESPGDDAS [I24Y] | -0.336 ± 0.33 |
| SPPKPKTIVLPPNWKTARDPEGKIAYYHVITRQTQWDPPTWESPGDDAS [Y25A] | -0.642 ± 0.072 |
| SPPKPKTIVLPPNWKTARDPEGKICYYHVITRQTQWDPPTWESPGDDAS [Y25C] | -0.538 ± 0.077 |
| SPPKPKTIVLPPNWKTARDPEGKIDYYHVITRQTQWDPPTWESPGDDAS [Y25D] | -0.485 ± 0.11 |
| SPPKPKTIVLPPNWKTARDPEGKIFYYHVITRQTQWDPPTWESPGDDAS [Y25F] | -0.227 ± 0.12 |
| SPPKPKTIVLPPNWKTARDPEGKIGYYHVITRQTQWDPPTWESPGDDAS [Y25G] | -0.844 ± 0.051 |
| SPPKPKTIVLPPNWKTARDPEGKIHYYHVITRQTQWDPPTWESPGDDAS [Y25H] | -0.419 ± 0.12 |
| SPPKPKTIVLPPNWKTARDPEGKIIYYHVITRQTQWDPPTWESPGDDAS [Y25I] | -0.38 ± 0.11 |
| SPPKPKTIVLPPNWKTARDPEGKIKYYHVITRQTQWDPPTWESPGDDAS [Y25K] | -0.569 ± 0.089 |
| SPPKPKTIVLPPNWKTARDPEGKILYYHVITRQTQWDPPTWESPGDDAS [Y25L] | -0.358 ± 0.047 |
| SPPKPKTIVLPPNWKTARDPEGKIMYYHVITRQTQWDPPTWESPGDDAS [Y25M] | -0.56 ± 0.047 |
| SPPKPKTIVLPPNWKTARDPEGKINYYHVITRQTQWDPPTWESPGDDAS [Y25N] | -0.911 ± 0.17 |
| SPPKPKTIVLPPNWKTARDPEGKIPYYHVITRQTQWDPPTWESPGDDAS [Y25P] | -0.784 ± 0.17 |
| SPPKPKTIVLPPNWKTARDPEGKIQYYHVITRQTQWDPPTWESPGDDAS [Y25Q] | -0.454 ± 0.1 |
| SPPKPKTIVLPPNWKTARDPEGKIRYYHVITRQTQWDPPTWESPGDDAS [Y25R] | -0.628 ± 0.049 |
| SPPKPKTIVLPPNWKTARDPEGKISYYHVITRQTQWDPPTWESPGDDAS [Y25S] | -0.628 ± 0.066 |
| SPPKPKTIVLPPNWKTARDPEGKITYYHVITRQTQWDPPTWESPGDDAS [Y25T] | -0.73 ± 0.14 |
